Results as given in patent US20220040319A1 (Regeneron, published 2022).
Blank lines part the entries; values can stand above or below the binder they belong to.

What was measured:
[1] = biological target: T1, hMet.mmh (human MET extracellular domain with C-terminal myc-myc-hexahistidine tag) (human, UniProt P08581 309-914; P08581 27-307); test: SPR 37C, antibody captured
T1 construct: soluble monomeric MET; also called monomeric human MET
Procedure: (§1) The anti-Met antibodies tested in this example were bivalent monospecific binders of MET.
(§2) Kinetic association (kₐ) and dissociation (kd) rate constants were determined by fitting the real-time sensorgrams to a 1:1 binding model using Scrubber 2.0c curve fitting software. Binding dissociation equilibrium constant (KD) and dissociative half-life (t1/2) were calculated from the kinetic rate constants as: […]

[2] = biological target: T2, hMET.mFc (dimeric human MET) (human, UniProt P08581 27-307); test: SPR 37C, antibody captured
T2 construct: soluble dimeric MET protein
T2 sequence (P08581 other isoform, or with tags, fused parts or gaps limits assumed, chain 1 of 2): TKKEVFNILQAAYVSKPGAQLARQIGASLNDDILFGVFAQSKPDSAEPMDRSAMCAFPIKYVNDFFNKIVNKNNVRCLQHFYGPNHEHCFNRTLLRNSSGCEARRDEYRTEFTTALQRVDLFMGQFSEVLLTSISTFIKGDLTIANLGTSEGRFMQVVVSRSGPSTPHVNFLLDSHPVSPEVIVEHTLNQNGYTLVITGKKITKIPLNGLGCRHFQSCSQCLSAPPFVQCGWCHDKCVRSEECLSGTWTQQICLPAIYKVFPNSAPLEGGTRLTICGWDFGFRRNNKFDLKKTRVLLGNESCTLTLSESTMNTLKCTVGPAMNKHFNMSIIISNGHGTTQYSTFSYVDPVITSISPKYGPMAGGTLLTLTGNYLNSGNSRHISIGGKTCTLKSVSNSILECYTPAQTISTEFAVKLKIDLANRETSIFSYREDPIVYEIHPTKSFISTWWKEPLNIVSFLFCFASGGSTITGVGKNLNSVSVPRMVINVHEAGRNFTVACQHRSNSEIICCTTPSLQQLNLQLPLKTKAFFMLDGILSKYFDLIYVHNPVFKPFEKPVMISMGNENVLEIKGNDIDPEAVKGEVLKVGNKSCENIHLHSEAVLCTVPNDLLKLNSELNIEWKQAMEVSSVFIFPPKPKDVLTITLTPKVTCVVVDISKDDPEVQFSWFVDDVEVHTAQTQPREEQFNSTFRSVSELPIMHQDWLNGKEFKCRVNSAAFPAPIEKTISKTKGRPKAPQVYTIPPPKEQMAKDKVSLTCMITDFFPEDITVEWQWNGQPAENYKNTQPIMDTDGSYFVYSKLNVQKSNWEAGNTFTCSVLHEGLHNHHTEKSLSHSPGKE
T2 sequence (P08581 27-307 limits assumed, chain 2 of 2): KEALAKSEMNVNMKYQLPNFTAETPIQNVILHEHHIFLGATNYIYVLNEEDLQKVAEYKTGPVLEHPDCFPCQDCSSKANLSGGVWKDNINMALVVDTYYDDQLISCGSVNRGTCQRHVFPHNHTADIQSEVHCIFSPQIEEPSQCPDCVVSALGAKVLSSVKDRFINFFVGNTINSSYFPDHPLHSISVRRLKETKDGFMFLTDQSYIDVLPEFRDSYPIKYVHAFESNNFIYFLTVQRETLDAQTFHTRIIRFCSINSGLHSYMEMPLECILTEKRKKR
Procedure: as §1, §2

human MET on cells = human MET on cells (human, UniProt P08581 25-1390); test: cell-based or functional assay; for % Inhibition, HEK293/SRE-Luc Blocking Activity (HGF, 1 h mAb pre-bind): test concentration or dose not given here
Chain of human MET on cells (P08581 25-1390 limits assumed, form in doubt): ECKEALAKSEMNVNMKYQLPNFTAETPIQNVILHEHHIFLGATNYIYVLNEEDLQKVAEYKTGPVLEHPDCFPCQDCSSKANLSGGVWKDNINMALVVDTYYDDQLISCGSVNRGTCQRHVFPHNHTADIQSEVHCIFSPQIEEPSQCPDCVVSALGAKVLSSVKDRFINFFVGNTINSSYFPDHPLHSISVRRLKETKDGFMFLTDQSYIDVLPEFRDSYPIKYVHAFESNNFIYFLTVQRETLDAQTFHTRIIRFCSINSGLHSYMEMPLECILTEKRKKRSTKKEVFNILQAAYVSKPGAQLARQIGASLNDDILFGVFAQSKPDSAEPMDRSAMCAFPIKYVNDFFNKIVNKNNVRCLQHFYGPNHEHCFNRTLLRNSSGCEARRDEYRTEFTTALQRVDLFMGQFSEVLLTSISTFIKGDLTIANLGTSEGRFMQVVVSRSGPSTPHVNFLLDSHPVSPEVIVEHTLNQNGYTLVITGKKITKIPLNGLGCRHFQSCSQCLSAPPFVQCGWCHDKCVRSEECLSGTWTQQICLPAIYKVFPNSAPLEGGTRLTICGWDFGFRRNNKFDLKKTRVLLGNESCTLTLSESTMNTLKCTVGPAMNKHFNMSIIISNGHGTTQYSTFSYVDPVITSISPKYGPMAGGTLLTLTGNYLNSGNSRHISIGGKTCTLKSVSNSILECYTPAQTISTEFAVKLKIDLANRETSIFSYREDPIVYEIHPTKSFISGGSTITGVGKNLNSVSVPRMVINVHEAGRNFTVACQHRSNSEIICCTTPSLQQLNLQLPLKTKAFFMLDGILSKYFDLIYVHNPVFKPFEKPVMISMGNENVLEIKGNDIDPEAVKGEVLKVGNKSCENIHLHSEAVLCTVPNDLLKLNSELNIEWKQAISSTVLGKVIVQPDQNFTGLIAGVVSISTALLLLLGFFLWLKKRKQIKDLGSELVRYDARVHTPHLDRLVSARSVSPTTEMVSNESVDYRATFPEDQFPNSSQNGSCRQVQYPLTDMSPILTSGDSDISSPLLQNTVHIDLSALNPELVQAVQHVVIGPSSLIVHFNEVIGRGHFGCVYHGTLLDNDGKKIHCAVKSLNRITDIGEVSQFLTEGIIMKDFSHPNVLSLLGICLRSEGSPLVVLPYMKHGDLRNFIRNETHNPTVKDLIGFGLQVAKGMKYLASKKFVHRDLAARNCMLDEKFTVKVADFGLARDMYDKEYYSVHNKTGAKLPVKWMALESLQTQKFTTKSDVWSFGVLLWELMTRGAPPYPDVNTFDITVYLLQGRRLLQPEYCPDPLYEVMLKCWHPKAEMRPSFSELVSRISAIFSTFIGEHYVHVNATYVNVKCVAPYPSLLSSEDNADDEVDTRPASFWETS

T1 sequence (P08581 other isoform, or with tags, fused parts or gaps limits assumed, chain 1 of 2): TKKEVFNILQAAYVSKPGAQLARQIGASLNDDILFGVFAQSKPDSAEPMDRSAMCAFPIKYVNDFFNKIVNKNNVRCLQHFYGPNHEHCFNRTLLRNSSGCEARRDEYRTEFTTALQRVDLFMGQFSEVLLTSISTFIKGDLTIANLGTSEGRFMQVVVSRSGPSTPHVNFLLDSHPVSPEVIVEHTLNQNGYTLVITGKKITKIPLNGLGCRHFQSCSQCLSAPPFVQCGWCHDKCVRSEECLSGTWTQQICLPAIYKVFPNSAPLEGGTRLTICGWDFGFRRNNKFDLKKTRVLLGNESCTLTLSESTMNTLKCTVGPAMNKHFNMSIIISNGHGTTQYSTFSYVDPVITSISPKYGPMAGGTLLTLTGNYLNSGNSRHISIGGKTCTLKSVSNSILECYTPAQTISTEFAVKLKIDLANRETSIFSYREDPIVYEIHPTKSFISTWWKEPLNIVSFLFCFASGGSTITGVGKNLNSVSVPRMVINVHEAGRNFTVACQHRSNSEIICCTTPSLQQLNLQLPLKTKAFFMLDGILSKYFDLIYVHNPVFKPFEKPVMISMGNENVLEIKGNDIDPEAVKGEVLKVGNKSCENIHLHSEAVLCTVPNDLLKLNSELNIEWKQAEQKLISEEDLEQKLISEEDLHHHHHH
T1 sequence (P08581 27-307 limits assumed, chain 2 of 2): as the sequence (P08581 27-307 limits assumed, chain 2 of 2) above

Kd [1]: 72.5 nM | T½ [1]: 4.8 min | koff [1]: 0.00243 s⁻¹ | kon [1]: 33500 M⁻¹ s⁻¹ | Kd [2]: 1.12 nM | T½ [2]: 39.1 min | koff [2]: 0.000295 s⁻¹ | kon [2]: 265000 M⁻¹ s⁻¹
B1: H4H13300P2 (antibody, human IgG4, V domains shown)
VH: QVQLVESGGGVVQPGRSLRLSCAVSGFTFSSYGMHWVRQAPGKGLEWVANIWYDGTNDYYPYSVKGRFTISRDNSQNTLYLQMNSLRAEDTAVYYCAREDFINYRSFDYWGQGTLVTVSS
VL: not shown
notes: human IgG4 Fc (H4H), bivalent monospecific

Kd [1]: 82.2 nM | T½ [1]: 1.9 min | koff [1]: 0.00622 s⁻¹ | kon [1]: 75700 M⁻¹ s⁻¹ | Kd [2]: 1.62 nM | T½ [2]: 10.1 min | koff [2]: 0.00114 s⁻¹ | kon [2]: 705000 M⁻¹ s⁻¹
B2: H4H13301P2 (antibody, human IgG4, V domains shown)
VH: QVQLVESGGGVVQPGTSLRLSCVASGFTFRNFGMHWVRQAPGKGLEWVANIWFDGSNENYVESIQGRFTISRDNSKNTLNLQMNSLRAEDSAVYYCVREGILGTTNPYDAFDVWGQGTMVTVSS
VL: not shown
notes: as for B1

Kd [1]: 8.57 nM | T½ [1]: 14.8 min | koff [1]: 0.00078 s⁻¹ | kon [1]: 91000 M⁻¹ s⁻¹ | Kd [2]: 0.878 nM | T½ [2]: 36.8 min | koff [2]: 0.000314 s⁻¹ | kon [2]: 357000 M⁻¹ s⁻¹
B3: H4H13299P2 (antibody, human IgG4, V domains shown)
VH: EVQLVESGGGLVQPGGSLRLSCAASGFIFSNYEMNWVRQAPGKGLEWISYITSSGNMKYYADSVKGRFTISRDNDKNSLYLQMSSLRVEDTAVYYCVRGGRFLEWLTYYVMVVWGQGTTVTVSS
VL: not shown
notes: as for B1

Kd [1]: 76.5 nM | T½ [1]: 4.9 min | koff [1]: 0.00238 s⁻¹ | kon [1]: 31100 M⁻¹ s⁻¹ | Kd [2]: 1.42 nM | T½ [2]: 21.3 min | koff [2]: 0.000542 s⁻¹ | kon [2]: 382000 M⁻¹ s⁻¹
B4: H4H13319P2 (antibody, human IgG4, V domains shown)
VH: QVQLVESGGGVVQPGRSLRLSCAASGFTFSSFAMHWVRQAPGKGLEWVAVIWYDGSNDYYAASVKGRFTISRDNSKNTLYLEMNRLRAEDTAVYHCARDNWNYWGGMDVWGQGTTVTVSS
VL: not shown
notes: as for B1

Kd [1]: 3.35 nM | T½ [1]: 13.2 min | koff [1]: 0.000873 s⁻¹ | kon [1]: 261000 M⁻¹ s⁻¹ | Kd [2]: 0.244 nM | T½ [2]: 74.1 min | koff [2]: 0.000156 s⁻¹ | kon [2]: 639000 M⁻¹ s⁻¹
B5: H4H13331P2 (antibody, human IgG4, V domains shown)
VH: QVQLQESGPGLVKSSETLSLTCTVSGGSIRNFYWSWLRQPPGKGLEWIGHINYNGGTDYNPSLKSRVTISVDTSKNQFSLNLNSVTAADTAVYYCARQRFYGMDVWGPGTTVTVSS
VL: not shown
notes: as for B1

Kd [1]: 64.9 nM | T½ [1]: 2 min | koff [1]: 0.0057 s⁻¹ | kon [1]: 87800 M⁻¹ s⁻¹ | Kd [2]: 1.19 nM | T½ [2]: 12.9 min | koff [2]: 0.000893 s⁻¹ | kon [2]: 750000 M⁻¹ s⁻¹
B6: H4H13313P2 (antibody, human IgG4, V domains shown)
VH: QVQLVESGGGVVQPGRSLRLSCSASGFSFSHFGMHWVRQVPGGGLEWVTSIWFDGSNRYYADSLKGRFTISRDNSKNTLYLEMNSLRAEDTAVYYCVREGILGTTNPYDVFDVWGQGTMVTVSS
VL: not shown
notes: as for B1

Kd [1]: 47 nM | T½ [1]: 4.7 min | koff [1]: 0.00246 s⁻¹ | kon [1]: 52400 M⁻¹ s⁻¹ | Kd [2]: 2.33 nM | T½ [2]: 19.8 min | koff [2]: 0.000584 s⁻¹ | kon [2]: 251000 M⁻¹ s⁻¹
B7: H4H13302P2 (antibody, human IgG4, V domains shown)
VH: QVQLVESGGGVVQPGRSLRLSCAASGFTFSNFGMHWVRQAPGKGLEWVAGIWFDGSNKNYIDSVKGRFTISRDNSKNTLYLQMNSLRAEDTAVYYCAREGYDSGTDYIPYDIFDIWGQGTMVTVSS
VL: not shown
notes: as for B1

Kd [1]: 3.17 nM | T½ [1]: 14.4 min | koff [1]: 0.000803 s⁻¹ | kon [1]: 253000 M⁻¹ s⁻¹ | Kd [2]: 0.513 nM | T½ [2]: 36.6 min | koff [2]: 0.000315 s⁻¹ | kon [2]: 615000 M⁻¹ s⁻¹
B8: H4H13290P2 (antibody, human IgG4, V domains shown)
VH: QVQLQESGPGLVKPSETLSLTCTVSGDSISSYYWTWIRQPPGKGLEWIGYIFYRGGTTYNPSLKSRVTISVDTSKNQFSLKLRSVTAADTAVYYCARGDDLLVVTSVYWYIDLWGRGTLVTVSS
VL: not shown
notes: as for B1

Kd [1]: 32.4 nM | T½ [1]: 21.4 min | koff [1]: 0.00054 s⁻¹ | kon [1]: 16700 M⁻¹ s⁻¹ | Kd [2]: 1.16 nM | T½ [2]: 43.8 min | koff [2]: 0.000264 s⁻¹ | kon [2]: 228000 M⁻¹ s⁻¹
B9: H4H13295P2 (antibody, human IgG4, V domains shown)
VH: QVQLVESGGGVVQPGRSLRVSCVVSGFTFSSFGMHWVRQAPDKGLEWVAVIWYDGSNDYYSDSVKGRFTISRDNSKNTLFLQMNRLRAEDTAVYYCARANNWNRFDAFDLWGQGTMVTVSS
VL: not shown
notes: as for B1

Kd [1]: 116 nM | T½ [1]: 2.2 min | koff [1]: 0.00519 s⁻¹ | kon [1]: 44800 M⁻¹ s⁻¹ | Kd [2]: 1.55 nM | T½ [2]: 24.7 min | koff [2]: 0.000468 s⁻¹ | kon [2]: 302000 M⁻¹ s⁻¹
B10: H4H13311P2 (antibody, human IgG4, V domains shown)
VH: QVQLVESGGGVVQPGRSLRLSCAASGFTFSSYAMHWVRQAPGRGLEWVAVIWHDGDVEYYVDSVKDRFTISRDNSKSTLYLQMNSLRAEDTALYYCAREAWDLLRPFDYWGQGTLVTVSS
VL: not shown
notes: as for B1

Kd [1]: 6.38 nM | T½ [1]: 19.7 min | koff [1]: 0.000587 s⁻¹ | kon [1]: 92000 M⁻¹ s⁻¹ | Kd [2]: 0.657 nM | T½ [2]: 43.3 min | koff [2]: 0.000267 s⁻¹ | kon [2]: 406000 M⁻¹ s⁻¹
B11: H4H13309P2 (antibody, human IgG4, V domains shown)
VH: QVQLVQSGTEVKEPGASVKVSCKASGYSFTTYGISWLRQAPGQGLEWMGWISTYNGDTISAQMLQDRVTLTADTSTRTAYMELRSLRSDDTAVYYCARGHEYDSLVYSYWGQGTLVTVSS
VL: not shown
notes: as for B1

Kd [1]: 88.3 nM | T½ [1]: 4 min | koff [1]: 0.00292 s⁻¹ | kon [1]: 33000 M⁻¹ s⁻¹ | Kd [2]: 0.467 nM | T½ [2]: 70.2 min | koff [2]: 0.000165 s⁻¹ | kon [2]: 352000 M⁻¹ s⁻¹
B12: H4H13318P2 (antibody, human IgG4, V domains shown)
VH: QVQLVESGGGVVQPGRSLRLSCVASGFSFSNFGMHWVRQAPGKGLEWVAIIWYDGSNKYYSDSVKGRFTISRDNSKNTLYLQMNSLRVDDTAVYYCARFDRWKFDAFDIWGQGTMVTVSS
VL: not shown
notes: as for B1

Kd [1]: 24.8 nM | T½ [1]: 4.9 min | koff [1]: 0.00236 s⁻¹ | kon [1]: 95300 M⁻¹ s⁻¹ | Kd [2]: 0.605 nM | T½ [2]: 62.4 min | koff [2]: 0.000185 s⁻¹ | kon [2]: 306000 M⁻¹ s⁻¹
B13: H4H13325P2 (antibody, human IgG4, V domains shown)
VH: EVQLLESGGGWVQPGGSLRLSCAASGFAFSNYAMNWVRQTPGKGLEWVSVISSSGGNTYYADSVKGRFAISRDNSRDTLHLQMNRLRVEDTAVYYCAKEIRPYYDLSYYYGMDVWGQGTTVTVSS
VL: not shown
notes: as for B1

% Inhibition, HEK293/SRE-Luc Blocking Activity (HGF, 1 h mAb pre-bind) (human MET on cells): 81% | EC50, Ligand (HGF)-Independent HEK293/SRE-Luc Activation (human MET on cells): 1 nM | Fold Response, Ligand (HGF)-Independent HEK293/SRE-Luc Activation (human MET on cells): 4.3 fold | IC50, HEK293/SRE-Luc Blocking Activity (HGF, 1 h mAb pre-bind) (human MET on cells): 0.52 nM
B14: H4H16445D (bispecific antibody, human IgG4, V domains shown)
VH 1: QVQLVESGGGVVQPGGSLRLSCAASGFTFSGYGMHWVRQAPGKGLEWMAVIWYDGSNDYYPDSVKGRFTISRDNSKNTLYLQMNSLRVEDTAVYYCARDAWDLLRSFDYWGQGTLVTVSS
VH 2: EVQLVESGGGLVQPGGSLRLSCAASGFIVTTNYMTWLRQAPGKGLEWVSLIYSSGHTYYADSVKGRFTISRHNSKNTLYLQMDSLRAEDTAVYYCASAFAADVFDIWGQGTMVTVSS
VL: not shown

% Inhibition, HEK293/SRE-Luc Blocking Activity (HGF, 1 h mAb pre-bind) (human MET on cells): 76% | EC50, Ligand (HGF)-Independent HEK293/SRE-Luc Activation (human MET on cells): 1.4 nM
B15: H4H16447D (bispecific antibody, human IgG4, V domains shown)
VH 1: B10 VH
VH 2: B14 VH 2
VL: not shown

% Inhibition, HEK293/SRE-Luc Blocking Activity (HGF, 1 h mAb pre-bind) (human MET on cells): 85% | EC50, Ligand (HGF)-Independent HEK293/SRE-Luc Activation (human MET on cells): 0.42 nM | Fold Response, Ligand (HGF)-Independent HEK293/SRE-Luc Activation (human MET on cells): 4.2 fold | IC50, HEK293/SRE-Luc Blocking Activity (HGF, 1 h mAb pre-bind) (human MET on cells): 0.32 nM
B16: H4H16449D (bispecific antibody, human IgG4, V domains shown)
VH 1: B4 VH
VH 2: B14 VH 2
VL: not shown

Kd [1]: 93.4 nM | T½ [1]: 4.8 min | koff [1]: 0.00238 s⁻¹ | kon [1]: 25500 M⁻¹ s⁻¹ | Kd [2]: 1.02 nM | T½ [2]: 34 min | koff [2]: 0.000339 s⁻¹ | kon [2]: 333000 M⁻¹ s⁻¹
B17: H4H13291P2 (antibody, human IgG4, V domains shown)
VH: B14 VH 1
VL: not shown
notes: as for B1

% Inhibition, HEK293/SRE-Luc Blocking Activity (HGF, 1 h mAb pre-bind) (human MET on cells): 83% | EC50, Ligand (HGF)-Independent HEK293/SRE-Luc Activation (human MET on cells): 1.4 nM | Fold Response, Ligand (HGF)-Independent HEK293/SRE-Luc Activation (human MET on cells): 4 fold | IC50, HEK293/SRE-Luc Blocking Activity (HGF, 1 h mAb pre-bind) (human MET on cells): 1 nM
B18: H4H16446D (bispecific antibody, human IgG4, V domains shown)
VH 1: B1 VH
VH 2: B14 VH 2
VL: not shown

% Inhibition, HEK293/SRE-Luc Blocking Activity (HGF, 1 h mAb pre-bind) (human MET on cells): 87% | EC50, Ligand (HGF)-Independent HEK293/SRE-Luc Activation (human MET on cells): 0.91 nM | Fold Response, Ligand (HGF)-Independent HEK293/SRE-Luc Activation (human MET on cells): 4.3 fold | IC50, HEK293/SRE-Luc Blocking Activity (HGF, 1 h mAb pre-bind) (human MET on cells): 0.62 nM
B19: H4H16448D (bispecific antibody, human IgG4, V domains shown)
VH 1: B12 VH
VH 2: B14 VH 2
VL: not shown

Kd [1]: 19.3 nM | T½ [1]: 7.6 min | koff [1]: 0.00151 s⁻¹ | kon [1]: 78200 M⁻¹ s⁻¹ | Kd [2]: 0.367 nM | T½ [2]: 107 min | koff [2]: 0.000108 s⁻¹ | kon [2]: 293000 M⁻¹ s⁻¹
B20: H4H13316P2 (antibody, human IgG4, V domains shown)
VH: EVQLVESGGGLVQPGGSLRLSCAASGFTFRSYVMSWFRQAPGKGLEWVSGMSGSGGSTSYADSVKGRFTISRDNSKNTLYLLMNSLRTEDTAVYYCAKENGANWNYGYYGMDVWGQGTTVTVSS
VL: not shown
notes: as for B1
